± gives the uncertainty stated by the source.
Assay: abundance fitness (aPCA) (normalised: wild type 0, dead -1); higher = more abundant; growth selection in yeast, the domain comes from the species named
Conditions: Homo sapiens
In the case of “E3 ubiquitin-protein ligase NEDD4 A851D, P46934”, the abundance fitness is reported as -0.043 ± 0.04.
In the case of “E3 ubiquitin-protein ligase NEDD4 E869I, P46934”, the abundance fitness is reported as -0.137 ± 0.071.
For “E3 ubiquitin-protein ligase NEDD4 F857Y, P46934”, the abundance fitness was 0.013 ± 0.048.
“E3 ubiquitin-protein ligase NEDD4 H850V, P46934” gave an abundance fitness of -0.155 ± 0.055.
“E3 ubiquitin-protein ligase NEDD4 I859V, P46934” showed an abundance fitness of -0.074 ± 0.065.
In the case of “E3 ubiquitin-protein ligase NEDD4 K844D, P46934”, the abundance fitness is reported as -0.053 ± 0.031.
Substance “E3 ubiquitin-protein ligase NEDD4 K864R, P46934” has an abundance fitness of -0.042 ± 0.053.
In the case of “E3 ubiquitin-protein ligase NEDD4 N853D, P46934”, the abundance fitness is reported as -0.116 ± 0.071.
With “E3 ubiquitin-protein ligase NEDD4 P852S, P46934” the abundance fitness was -0.058 ± 0.055.
With “E3 ubiquitin-protein ligase NEDD4 R849K, P46934” the abundance fitness was 0.052 ± 0.062.
For “E3 ubiquitin-protein ligase NEDD4 T863Q, P46934”, the abundance fitness was -0.511 ± 0.1.
Work on “E3 ubiquitin-protein ligase NEDD4 V848I, P46934” yielded an abundance fitness of -0.103 ± 0.075.

Reference: the Human Domainome abundance scans (Beltran et al. 2025)
